Measurements as given in patent US20250051449A1 (SURFACE ONCOLOGY, published 2025).
Numbering of substitutions follows the chain as printed.

B1: Antibody 46 (antibody, V domains shown)
VH: EVQLVESGGGLVQPGRSLRLSCTASGFTFGDYAMSWFRQAPGKGLEWVGFIGSKAYGGTTEYTASVKGRFTISRDGSKSIAYLQMNSLKTEDTAVYYCARGPRRYTYGMDVWGQGTTVTVSS
VL: DIQMTQSPSSLSASVGDRVTITCRASQSISSYLNWYQQKPGKAPKLLIYAASSLQSGVPSRFSGSGSGTDFTLTISSLQPEDFATYYCQQSSTPLTFGGGTKVEIK
notes: in the mouse tumor studies it was used as mouse IgG2a; also called antibody clone number 46; clone 46
B2: Antibody 58 (antibody, V domains shown)
VH: B1 VH with A55F, T59E
VL: B1 VL
notes: Purified as IgG; compared with an IgG1 isotype control and detected with anti-human IgG Fc; also called antibody clone number 58; clone 58
B3: Antibody 32 (antibody, V domains shown)
VH: QVQLVQSGAEVKKPGSSVKVSCKASGGTFSSYAISWVRQAPGQGLEWMGGIIPISGTANYAQKFQGRVTITADESTSTAYMELSSLRSEDTAVYYCARDTGRGYTRHFWFDPWGQGTLVTVSS
VL: B1 VL with S92D, T93I, P94L, L95Y
notes: Purified as IgG; compared with an IgG1 isotype control and detected with anti-human IgG Fc; also called antibody clone number 32; parent clone 32
B4: Antibody 33 (antibody, V domains shown)
VH: B3 VH with S30G, S31N, S55P, T57I
VL: B1 VL with S92D, T93I, P94L, L95Y
notes: Purified as IgG; compared with an IgG1 isotype control and detected with anti-human IgG Fc; also called antibody clone number 33; clone 33
B5: Antibody 34 (antibody, V domains shown)
VH: B3 VH with Y32A, I52F, T57H
VL: B1 VL with S92D, T93I, P94L, L95Y
notes: Purified as IgG; compared with an IgG1 isotype control and detected with anti-human IgG Fc; also called antibody clone number 34; clone 34
B6: Antibody 35 (antibody, V domains shown)
VH: B3 VH with Y32A, G50N, S55V, T57I
VL: B1 VL with S92D, T93I, P94L, L95Y
notes: Purified as IgG; compared with an IgG1 isotype control and detected with anti-human IgG Fc; also called antibody clone number 35; clone 35
B7: Antibody 36 (antibody, V domains shown)
VH: B3 VH with S30A, S31T, I52F, I54L
VL: B1 VL with S92D, T93I, P94L, L95Y
notes: Purified as IgG; compared with an IgG1 isotype control and detected with anti-human IgG Fc; also called antibody clone number 36; clone 36

How the values were obtained:
[1] = target: T1, mouse CD112R-hIgG4 fusion protein (mouse; human); assay: blocking ELISA: coated mouse CD112, antibody plus mouse CD112R-hIgG4 (2 ug/mL)
T1 construct: also called soluble mouse CD112R; soluble murine CD112R
Method: The ability of species cross reactive anti-CD112R antibodies to block mouse CD112R binding to mouse CD112 was evaluated by ELISA. Briefly. 96 well Nunc Maxisorp plates were coated with 1 μg/mL of mouse CD112 (Sino Biological. Cat #50318-M08H) in PBS overnight at 4° C. […] After blocking, plates were washed 6× with PBST. Next. 50 μL of anti-CD112R antibodies or isotype control (Biolegend. Cat #403502) in PBS+1% BSA were added at a final starting concentration of 40 μg/mL, with 2-fold serial dilutions. 50 μL of a mouse CD112R-hIgG4 fusion protein was also added to each well at a final concentration of 2 μg/mL. Plates were incubated at room temperature for 1.5 hours. Next plates were washed 6× with PBST and then incubated with anti-IgG4 HRP (Thermo Fisher, Cat #MA1-33437) in 100 μL for 1 hour at room temperature. Plates were then washed 6× with PBST and developed with TMB substrate (Life Technologies. Cat #002023). The reaction was stopped with an equal volume of stop solution (Life Technologies. Cat #SS04). Absorbance at 450 nm (O.D. 450) was measured on a SpectraMax plate reader.
Results are depicted in FIG. 19 and Table 11. […] Percent inhibition was calculated as [100−((test sample O.D. 450/Max O.D. 450)*100%)] Max O.D. 450 was defined as absorbance at 450 nm in the absence of antibody.

[2] = target: T2, mouse CD112R overexpressed on 293T cells (mouse); assay: flow cytometry, 293T cells overexpressing mouse CD112R
T2 construct: whole, on cells; also called 293T.mCD112R; 293T-mouse CD112R
Method: The ability of anti-CD112R antibodies to bind to mouse CD112R was evaluated on cells overexpressing mouse CD112R. 0.8×10⁵ 293T cells (ATCC CRL-3216) that were engineered to overexpress mouse CD112R (293T.mCD112R) were added to each well of a 96-well V bottom plate and stained with either anti-CD112R antibodies or an IgG1 isotype control at a starting concentration of 10 μg/mL, with 3-fold serial dilutions for 30 minutes at 4° C. Cells were washed twice with PBS+2% FCS and resuspended with Alexa Fluor® 647 anti-human IgG Fc antibody (Biolegend, Cat #409320) diluted 1:100 in PBS+2% FCS and incubated at 4° C. for 20 minutes. Cells were subsequently washed twice and resuspended in PBS+2% FCS. Cellular data was acquired using a LSRFortessa X-20 (BD Biosciences) and analyzed with FlowJo software (Tree Star).
Results are depicted in FIG. 17 and Table 11. Quantitation of antibody binding to 293T.mCD112R cells was assessed by the geometric mean fluorescent intensity (gMFI) of the Alexa Fluor® 647 signal.

[3] = target: T3, CD112R-hIgG4 fusion protein (human, UniProt Q6DKI7 41-171, limits assumed); assay: blocking ELISA: coated CD112R-hIgG4, antibody, then biotinylated CD112 Fc
T3 construct: also called human CD112R-hIgG4; not shown: human IgG4 portion (hIgG4)
T3 sequence (looked up): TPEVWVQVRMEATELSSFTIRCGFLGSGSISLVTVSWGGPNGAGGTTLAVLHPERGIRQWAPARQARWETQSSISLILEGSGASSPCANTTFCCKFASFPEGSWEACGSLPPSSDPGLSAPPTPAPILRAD
Method: The ability of anti-CD112R antibodies to block human CD112R was also evaluated by ELISA. Briefly, 96 well Nunc Maxisorp plates were coated with 1 μg/mL of a CD112R-hIgG4 fusion protein in PBS overnight at 4° C. […] After blocking, plates were washed 6× with PBST. Next, 100 μl of anti-CD112R antibodies in PBS+1% BSA was added at a final starting concentration of 10 μg/mL, with 4-fold serial dilutions. Plates were incubated at room temperature for 1.5 hours. Next plates were washed 6× with PBST and then incubated with 1 μg/ml CD112 Fc protein (R&D Systems, Cat #9317-N2-050) that was biotinylated with a sulfo-NHS biotinylation kit (Thermo Fisher, Cat #21925) in 100 μl of PBS+1% BSA for 1 hour at room temperature. Plates were then washed 6× with PBST and subsequently incubated with streptavidin-HRP (Biolegend, Cat #405210) diluted in PBS+1% BSA according to the manufacturer recommendation for 1 hour at room temperature. Following this incubation, plates were then washed 6× with PBST and developed with TMB substrate (Life Technologies, Cat #002023). The reaction was stopped with an equal volume of stop solution (Life Technologies, Cat #SS04). Absorbance at 450 nm (O.D. 450) was measured on a SpectraMax plate reader.
Results are depicted in FIG. 2B and Table 2. […] Percent inhibition was calculated as [100−((test sample O.D. 450/Max 0.D. 450)*100%)] Max O.D. 450 was defined as absorbance at 450 nm in the absence of antibody.

[4] = target: T1, mouse CD112R-hIgG4 fusion protein; assay: ELISA: coated antibody, titrated mouse CD112R-hIgG4, anti-IgG4 HRP
Method: The ability of anti-CD112R antibodies to bind to soluble mouse CD112R was evaluated by ELISA. Briefly. 96 well Nunc Maxisorp plates were coated with 1 μg/mL of anti-CD112R antibodies or isotype control (Biolegend. Cat #403502) in PBS overnight at 4° C. […] After blocking, plates were washed 6× with PBST. Next. 100 μL of a mouse CD112R-hIgG4 fusion protein in PBS+1% BSA was added at a final starting concentration of 10 μg/mL, with 4-fold serial dilutions. Plates were incubated at room temperature for 1.5 hours. Next plates were washed 6× with PBST and then incubated with anti-IgG4 HRP (Thermo Fisher, Cat #MA1-33437) in 100 μL for 1 hour at room temperature. Plates were then washed 6× with PBST and developed with TMB substrate (Life Technologies. Cat #002023). The reaction was stopped with an equal volume of stop solution (Life Technologies. Cat #SS04). Absorbance at 450 nm (O.D. 450) was measured on a SpectraMax plate reader.

Binder	mouse CD112/CD112R blocking ELISA max inhibition (%) [1] [%]	gMFI (fold increase over isotype) [2]	CD112 blocking max inhibition ELISA (%) [3] [%]	EC50 [4] [µg/mL]
B1	88	74.8 fold increase over isotype	97.6	0.181
B2	85.7	79.4 fold increase over isotype	97.3	0.412
B3	0	14.9 fold increase over isotype	75.1	0.27
B4	28.3	73.3 fold increase over isotype	78.8	0.0383
B5	20.3	72.2 fold increase over isotype	80	0.0242
B6	24.2	55.6 fold increase over isotype	81.7	0.0215
B7	41.6	76.3 fold increase over isotype	86.2	0.0251
